Experimental data taken from patent US20220378931A1 (Eli Lilly, published 2022).
Substitutions are numbered along the chain they refer to.

B1: INS Analog 17 (other)
chain: FVSQHLCGSHLVEALRLVCGERGFFYTPKTGGGGGGGIVEQCCHSICSLYQLENYCGPGPAPGPAPGPAPGPAPGPAPGPAPGPAPGPAEVQLLESGGGLVQPGGSLRLSCAASGRYIDETAVAWFRQAPGKEREFVAGIGGGVDITYYADSVKGRFTISRDNSKNTLYLQMNSLRPEDTAVYYCAARPGRPLITSKVADLYPYWGQGTLVTVSSPP
notes: single-chain insulin B-L2-A-L1-VHH fusion; also called Ex. 17
B2: INS Analog 12 (other)
chain: B1 chain with R16H, F25H
notes: single-chain insulin B-L2-A-L1-VHH fusion; also called Ex. 12
B3: INS Analog 11 (other)
chain: B1 chain with R16H, Y50E
notes: single-chain insulin B-L2-A-L1-VHH fusion; also called Ex. 11
B4: INS Analog 14 (other)
chain: B1 chain with H44T
notes: single-chain insulin B-L2-A-L1-VHH fusion; also called Ex. 14
B5: INS Analog 18 (other)
chain: B1 chain with F25H
notes: single-chain insulin B-L2-A-L1-VHH fusion; L1 is (PGPA)8; also called Ex. 18
B6: INS Analog 7 (other)
chain: B1 chain with R16Y, H44T
notes: single-chain insulin B-L2-A-L1-VHH fusion; also called Ex. 7
B7: INS Analog 13 (other)
chain: B1 chain with R16H, F25H, Y50E
notes: single-chain insulin B-L2-A-L1-VHH fusion; also called Ex. 13
B8: INS Analog 2 (other)
chain: FVDQHLCGSHLVEALYLVCGERGFFYTPKTGGGGGGGIVEQCCTSICSLYQLENYCGPGPAPGPAPGPAPGPAPGPAPGPAPGPAPGPAEVQLLESGGGLVQPGGSLRLSCAASGRTVSSTAVAWFRQAPGKEREFVAGIGGSVDITYYADSVKGRFTISRDNSKNTLYLQMNSLRPEDTAVYYCAVRPGRPLITSRDANLYDYWGQGTLVTVSS
notes: single-chain insulin B-L2-A-L1-VHH fusion; also called Ex. 2
B9: INS Analog 15 (other)
chain: B1 chain with R16F, H44T
notes: single-chain insulin B-L2-A-L1-VHH fusion; also called Ex. 15
B10: INS Analog 9 (other)
chain: B1 chain with R16Y, F25H
notes: single-chain insulin B-L2-A-L1-VHH fusion; also called Ex. 9
B11: INS Analog 16 (other)
chain: B1 chain with R16W, H44T
notes: single-chain insulin B-L2-A-L1-VHH fusion; also called Ex. 16
B12: INS Analog 10 (other)
chain: B1 chain with R16H, H44T
notes: single-chain insulin B-L2-A-L1-VHH fusion; also called Ex. 10
B13: INS Analog 22 (other)
chain: B1 chain with R16H, F25H, A61Q, A65Q, A69Q, A73Q, A77Q, A81Q, A85Q, A89Q
notes: single-chain insulin B-L2-A-L1-VHH fusion; also called Ex. 22
B14: INS Analog 8 (other)
chain: B1 chain with R16Y, F25H, H44T
notes: single-chain insulin B-L2-A-L1-VHH fusion; also called Ex. 8
B15: INS Analog 20 (other)
chain: B1 chain with R16Y, H44T, A61Q, A65Q, A69Q, A73Q, A77Q, A81Q, A85Q, A89Q
notes: single-chain insulin B-L2-A-L1-VHH fusion; also called Ex. 20
B16: INS Analog 19 (other)
chain: FVSQHLCGSHLVEALYLVCGERGFFYTPKTGGGGGGGIVEQCCTSICSLYQLENYCGGGGGQGGGGQGGGGQGGGGQGGGGQEVQLLESGGGLVQPGGSLRLSCAASGRYIDETAVAWFRQAPGKEREFVAGIGGGVDITYYADSVKGRFTISRDNSKNTLYLQMNSLRPEDTAVYYCAARPGRPLITSKVADLYPYWGQGTLVTVSSPP
notes: single-chain insulin B-L2-A-L1-VHH fusion; also called Ex. 19
B17: INS Analog 21 (other)
chain: B16 chain with Y16H, F25H, T44H
notes: single-chain insulin B-L2-A-L1-VHH fusion; also called Ex. 21
B18: INS Analog 6 (other)
chain: B8 chain with D3N, F25H
notes: single-chain insulin B-L2-A-L1-VHH fusion; also called Ex. 6
B19: INS Analog 3 (other)
chain: B8 chain with D3N, S9A
notes: single-chain insulin B-L2-A-L1-VHH fusion; also called Ex. 3
B20: INS Analog 5 (other)
chain: B8 chain with D3N, Y16H
notes: single-chain insulin B-L2-A-L1-VHH fusion; also called Ex. 5
B21: INS Analog 4 (other)
chain: B8 chain with D3N, Y16E
notes: single-chain insulin B-L2-A-L1-VHH fusion; also called Ex. 4

Target: T1, human insulin receptor isoform B with C-terminal C9 tag (human, UniProt P06213 28-1382)
T1 construct: membranes of stably transfected HEK293 cells; also called hIR-B; human IR-B
Assay: 125I-insulin competition SPA, hIR-B membranes, 0.1% HSA
Protocol: (§1) The assays are performed with a SPA method using polyvinyltoluene (PVT) wheat germ agglutinin-coupled SPA beads (Perkin Elmer). Assay buffer contains 50 mM Tris-HCl, pH 7.5, 150 mM NaCl and either A) 0.1% w/v fatty-acid free BSA; B) 0.1% w/v fatty-acid free human serum albumin (HSA); C) 0.1% w/v rat serum albumin (RSA); or D) 0.001% Nonidet P-40 Substitute (NP-40, Roche Diagnostics). Ten-point concentration response curves using three-fold serial dilutions of test samples or controls are prepared in Assay Buffer using a Freedom/Evo robot (Tecan).
(§2) Percent specific inhibition (y-axis) is plotted versus the log concentration of compound (x-axis). […] Reported Ki values are shown as the geometric mean with the standard error (Delta Method Standard Error) and the number of independent replicate determinations used to calculate the geometric mean indicated by n.

Ki [nM] | Binder
102 | B1
62.1 | B2
95.4 | B3
447 | B4
239 | B5
47.1 | B6
89 | B7
29.7 | B8

Target: T1, human insulin receptor isoform B with …
Assay: 125I-insulin competition SPA, hIR-B membranes, 0.1% BSA
Protocol: as §1, §2

Ki [nM] | Binder
110 | B1
113 | B2
164 | B3
378 | B4
299 | B5
120 | B6
131 | B7
56 | B8

Target: T2, human insulin receptor isoform A with C-terminal C9 tag (human, UniProt P06213 28-1382)
T2 construct: membranes of stably transfected HEK293 cells; also called hIR-A; human IR-A
Assay: 125I-insulin competition SPA, hIR-A membranes, 0.1% HSA
Protocol: as §1, §2

Ki [nM] | Binder
31.3 | B1
42.3 | B2
31.8 | B3
124 | B4
518 | B5
36.3 | B6
34.6 | B7
31.9 | B8

Target: T1, human insulin receptor isoform B with …
Assay: 125I-insulin competition SPA, hIR-B membranes, 0.001% NP-40
Protocol: as §1, §2

Ki [nM] | Binder
44.3 | B1
42.8 | B2
81.1 | B3
234 | B4
134 | B5
45.4 | B6
39.2 | B7
39.2 | B8

Target: T2, human insulin receptor isoform A with …
Assay: 125I-insulin competition SPA, hIR-A membranes, 0.001% NP-40
Protocol: as §1, §2

Ki [nM] | Binder
31.3 | B1
13.1 | B9
6.67 | B10
25 | B2
20.5 | B3
43.1 | B11
20.1 | B12
163 | B4
89.5 | B5
14.3 | B6
23.1 | B7
17.1 | B13
47.3 | B14
18.5 | B15
45.1 | B8
18.5 | B16
8.3 | B17

Target: T2, human insulin receptor isoform A with …
Assay: 125I-insulin competition SPA, hIR-A membranes, 0.1% BSA
Protocol: as §1, §2

Ki [nM] | Binder
81.8 | B1
39.2 | B9
11.7 | B10
37.9 | B2
36 | B3
46 | B11
146 | B12
282 | B4
204 | B5
36.1 | B6
60.3 | B7
59.7 | B13
139 | B14
51.3 | B15
31.4 | B8
65.5 | B18
45.2 | B19
57 | B20
591 | B21
41.8 | B16
28 | B17
